Legend:
[1] = biological target: complement C3b, site-specifically biotinylated (human) (UniProt P01024); assay: SPR
[2] = biological target: complement C3b, site-specifically biotinylated (human) (UniProt P01024); assay: SPR; remark: listed apart in the source
[3] = biological target: complement C3b, site-specifically biotinylated (human) (UniProt P01024); assay: AlphaScreen or HTRF

Sequence of complement C3b, site-specifically biotinylated (human) (P01024 23-667, chain 1 of 2): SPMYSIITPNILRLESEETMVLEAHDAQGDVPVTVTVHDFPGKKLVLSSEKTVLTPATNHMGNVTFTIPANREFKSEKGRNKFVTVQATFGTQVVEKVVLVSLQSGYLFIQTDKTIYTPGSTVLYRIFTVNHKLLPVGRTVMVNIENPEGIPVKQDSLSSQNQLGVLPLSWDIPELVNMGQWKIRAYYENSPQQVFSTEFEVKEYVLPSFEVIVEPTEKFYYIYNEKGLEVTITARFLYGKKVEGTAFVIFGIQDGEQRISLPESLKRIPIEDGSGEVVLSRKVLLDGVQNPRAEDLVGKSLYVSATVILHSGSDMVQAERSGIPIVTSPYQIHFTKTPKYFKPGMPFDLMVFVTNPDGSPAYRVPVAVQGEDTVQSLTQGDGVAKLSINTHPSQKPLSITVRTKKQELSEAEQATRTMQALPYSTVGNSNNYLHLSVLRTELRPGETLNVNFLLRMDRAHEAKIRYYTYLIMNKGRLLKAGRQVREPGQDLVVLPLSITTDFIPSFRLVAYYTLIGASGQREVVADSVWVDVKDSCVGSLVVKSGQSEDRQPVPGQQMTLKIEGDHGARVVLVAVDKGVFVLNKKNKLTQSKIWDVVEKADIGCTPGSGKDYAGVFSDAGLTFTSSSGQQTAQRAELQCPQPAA
Sequence of complement C3b, site-specifically biotinylated (human) (P01024 749-1663, chain 2 of 2): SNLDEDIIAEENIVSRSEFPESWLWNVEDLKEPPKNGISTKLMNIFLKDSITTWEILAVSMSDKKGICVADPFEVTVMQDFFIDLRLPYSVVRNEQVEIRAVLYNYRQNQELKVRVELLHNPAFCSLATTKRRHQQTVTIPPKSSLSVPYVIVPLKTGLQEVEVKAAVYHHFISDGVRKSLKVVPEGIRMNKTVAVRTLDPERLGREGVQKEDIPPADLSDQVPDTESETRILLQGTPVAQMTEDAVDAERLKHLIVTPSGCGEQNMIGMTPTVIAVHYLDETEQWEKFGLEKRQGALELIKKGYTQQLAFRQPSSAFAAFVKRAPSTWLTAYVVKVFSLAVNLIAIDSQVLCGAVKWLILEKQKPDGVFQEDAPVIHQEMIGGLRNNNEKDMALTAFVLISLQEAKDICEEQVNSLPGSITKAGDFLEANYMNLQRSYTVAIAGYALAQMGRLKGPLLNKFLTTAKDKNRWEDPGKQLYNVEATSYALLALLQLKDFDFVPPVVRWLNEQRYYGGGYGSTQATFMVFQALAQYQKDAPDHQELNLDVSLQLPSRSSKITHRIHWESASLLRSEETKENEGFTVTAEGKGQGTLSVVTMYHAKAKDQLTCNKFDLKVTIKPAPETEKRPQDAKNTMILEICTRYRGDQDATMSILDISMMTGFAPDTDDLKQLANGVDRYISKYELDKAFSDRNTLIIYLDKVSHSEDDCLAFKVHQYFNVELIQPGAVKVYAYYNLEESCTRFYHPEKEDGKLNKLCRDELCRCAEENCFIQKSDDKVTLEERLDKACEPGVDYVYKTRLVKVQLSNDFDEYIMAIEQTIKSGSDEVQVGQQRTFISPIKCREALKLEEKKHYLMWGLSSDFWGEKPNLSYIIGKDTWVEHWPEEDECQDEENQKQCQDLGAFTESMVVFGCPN

Substance | Kd [1] | koff [1] | kon [1] | Kd [2] | Kd [3]
SCIN-B.R44A (natural protein) | 2600 nM | 0.35 s⁻¹ | 140000 M⁻¹ s⁻¹ | 2500 nM | 
SCIN-B.R44A.Y51A (natural protein) | 5100 nM | 0.51 s⁻¹ | 110000 M⁻¹ s⁻¹ | 2500 nM | 3500 nM
SCIN-B.Y51A (natural protein) | 810 nM |  |  | 1000 nM | 900 nM
staphylococcal complement inhibitor SCIN-B, full-length wild type (natural protein) | 202 nM |  | 520000 M⁻¹ s⁻¹ | 390 nM | 
